Positions of bridges follow the written chain, without caps; N, C: chain ends. Non-standard residues stand in square brackets, D forms with d. Trp(7-Me) = Cc1cccc2c(C[C@H](N)C(=O)O)c[nH]c12; 2Nal = N[C@@H](Cc1ccc2ccccc2c1)C(=O)O; AEF = NCCOc1ccc(C[C@H](N)C(=O)O)cc1; Cit = NC(=O)NCCC[C@H](N)C(=O)O; Pen = CC(C)(S)[C@H](N)C(=O)O; αMeK = C[C@](N)(CCCCN)C(=O)O; Aib = CC(C)(N)C(=O)O; βAla = NCCC(=O)O
T1: interleukin-23 receptor (IL-23R) (human, UniProt Q5VWK5 24-629)
T1 sequence (looked up): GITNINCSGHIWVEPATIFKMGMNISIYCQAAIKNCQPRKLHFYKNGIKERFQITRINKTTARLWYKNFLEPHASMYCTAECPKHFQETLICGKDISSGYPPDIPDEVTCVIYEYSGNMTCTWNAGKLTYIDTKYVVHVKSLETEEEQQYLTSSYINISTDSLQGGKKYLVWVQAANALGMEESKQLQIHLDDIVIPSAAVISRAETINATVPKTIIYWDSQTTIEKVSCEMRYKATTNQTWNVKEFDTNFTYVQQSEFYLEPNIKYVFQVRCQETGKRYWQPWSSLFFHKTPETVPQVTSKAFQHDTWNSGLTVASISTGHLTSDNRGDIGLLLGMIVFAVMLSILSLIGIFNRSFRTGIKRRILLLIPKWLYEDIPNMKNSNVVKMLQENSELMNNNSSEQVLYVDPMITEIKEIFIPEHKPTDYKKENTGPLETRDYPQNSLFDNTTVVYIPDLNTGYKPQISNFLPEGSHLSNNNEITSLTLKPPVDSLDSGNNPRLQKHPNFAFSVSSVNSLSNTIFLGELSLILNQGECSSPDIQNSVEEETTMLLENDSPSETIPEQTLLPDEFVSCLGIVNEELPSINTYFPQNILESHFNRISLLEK


target: T1, interleukin-23 receptor (IL-23R); assay: cell-based or functional assay

Binder | pStat3 HTRF IC50 [nM]
Ac-[Pen]NT[Trp(7-Me)][Cit][Pen][AEF][2Nal][αMeK]K(Ac)N[dF]-NH2 (disulfide 1-6; SMILES CC(=O)NCCCC[C@H](NC(=O)[C@](C)(CCCCN)NC(=O)[C@H](Cc1ccc2ccccc2c1)NC(=O)[C@H](Cc1ccc(OCCN)cc1)NC(=O)[C@H]1NC(=O)[C@H](CCCNC(N)=O)NC(=O)[C@H](Cc2c[nH]c3c(C)cccc23)NC(=O)[C@H]([C@@H](C)O)NC(=O)[C@H](CC(N)=O)NC(=O)[C@@H](NC(C)=O)C(C)(C)SSC1(C)C)C(=O)N[C@@H](CC(N)=O)C(=O)N[C@H](Cc1ccccc1)C(N)=O) [Peptide of SEQ ID NO: 257] | 3.88
Ac-[Pen]NT[Trp(7-Me)][Cit][Pen][AEF][2Nal][αMeK]K(Ac)NT-NH2 (disulfide 1-6; SMILES CC(=O)NCCCC[C@H](NC(=O)[C@](C)(CCCCN)NC(=O)[C@H](Cc1ccc2ccccc2c1)NC(=O)[C@H](Cc1ccc(OCCN)cc1)NC(=O)[C@H]1NC(=O)[C@H](CCCNC(N)=O)NC(=O)[C@H](Cc2c[nH]c3c(C)cccc23)NC(=O)[C@H]([C@@H](C)O)NC(=O)[C@H](CC(N)=O)NC(=O)[C@@H](NC(C)=O)C(C)(C)SSC1(C)C)C(=O)N[C@@H](CC(N)=O)C(=O)N[C@H](C(N)=O)[C@@H](C)O) [Peptide of SEQ ID NO: 262] | 0.996
XNTXKXXXXKNR (Ac-[Pen]-NT-[W(7-Me)]-[Lys(Ac)]-[Pen]-Phe[4-(2-aminoethoxy)]-[2-Nal]-[a-MeLys]-[Lys(Ac)]-N-R-NH2; Pen-Pen disulfide) [Peptide of SEQ ID NO: 243] | 1.87
Ac-[Pen]NT[Trp(7-Me)][Cit][Pen][AEF][2Nal][αMeK]K(Ac)[βAla][βAla]-NH2 (disulfide 1-6; SMILES CC(=O)NCCCC[C@H](NC(=O)[C@](C)(CCCCN)NC(=O)[C@H](Cc1ccc2ccccc2c1)NC(=O)[C@H](Cc1ccc(OCCN)cc1)NC(=O)[C@H]1NC(=O)[C@H](CCCNC(N)=O)NC(=O)[C@H](Cc2c[nH]c3c(C)cccc23)NC(=O)[C@H]([C@@H](C)O)NC(=O)[C@H](CC(N)=O)NC(=O)[C@@H](NC(C)=O)C(C)(C)SSC1(C)C)C(=O)NCCC(=O)NCCC(N)=O) [Peptide of SEQ ID NO: 268] | 3.24
Ac-[Pen]NT[Trp(7-Me)][Cit][Pen][AEF][2Nal][αMeK]K(Ac)NY-NH2 (disulfide 1-6; SMILES CC(=O)NCCCC[C@H](NC(=O)[C@](C)(CCCCN)NC(=O)[C@H](Cc1ccc2ccccc2c1)NC(=O)[C@H](Cc1ccc(OCCN)cc1)NC(=O)[C@H]1NC(=O)[C@H](CCCNC(N)=O)NC(=O)[C@H](Cc2c[nH]c3c(C)cccc23)NC(=O)[C@H]([C@@H](C)O)NC(=O)[C@H](CC(N)=O)NC(=O)[C@@H](NC(C)=O)C(C)(C)SSC1(C)C)C(=O)N[C@@H](CC(N)=O)C(=O)N[C@@H](Cc1ccc(O)cc1)C(N)=O) [Peptide of SEQ ID NO: 266] | 2.78
XNTXQXXXXKLX (Ac-[Pen]-N-T-[W(7-Me)]-Q-[Pen]-Phe[4-(2-aminoethoxy)]-[2-Nal]-[a-MeLys]-[Lys(Ac)]-L-[bA]-NH2; Pen-Pen disulfide) [Peptide of SEQ ID NO: 269] | 10.1
XNTXKXXXXKHX (Ac-[Pen]-N-T-[W(7-Me)]-[Lys(Ac)]-[Pen]-Phe[4-(2-aminoethoxy)]-[2-Nal]-[a-MeLys]-[Lys(Ac)]-H-[bA]-NH2; Pen-Pen disulfide) [Peptide of SEQ ID NO: 272] | 7.13
XNTXKXXXXKNX (Ac-[Pen]-NT-[W(7-Me)]-[Lys(Ac)]-[Pen]-Phe[4-(2-aminoethoxy)]-[2-Nal]-[a-MeLys]-[Lys(Ac)]-N-[NMeArg]-NH2; Pen-Pen disulfide) [Peptide of SEQ ID NO: 246] | 4.83
XNTXKXXXXKNX (Ac-[Pen]-NT-[W(7-Me)]-[Lys(Ac)]-[Pen]-Phe[4-(2-aminoethoxy)]-[2-Nal]-[a-MeLys]-[Lys(Ac)]-N-[Cit]-NH2; Pen-Pen disulfide) [Peptide of SEQ ID NO: 249] | 0.639
XNTXKXXXXKNP (Ac-[Pen]-NT-[W(7-Me)]-[Lys(Ac)]-[Pen]-Phe[4-(2-aminoethoxy)]-[2-Nal]-[a-MeLys]-[Lys(Ac)]-N-[(D)Pro]-NH2; Pen-Pen disulfide) [Peptide of SEQ ID NO: 254] | 3.65
XNTXKXXXXKXX (Ac-[Pen]-N-T-[W(7-Me)]-[Lys(Ac)]-[Pen]-Phe[4-(2-aminoethoxy)]-[2-Nal]-[a-MeLys]-[Lys(Ac)]-[bA]-[bA]-NH2; Pen-Pen disulfide) [Peptide of SEQ ID NO: 270] | 4.43

Further lines, results first:

pStat3 HTRF IC50 [nM] | Binder
0.603 | Ac-[Pen]NT[Trp(7-Me)][Cit][Pen][AEF][2Nal][αMeK]K(Ac)N[dT]-NH2 (disulfide 1-6; SMILES CC(=O)NCCCC[C@H](NC(=O)[C@](C)(CCCCN)NC(=O)[C@H](Cc1ccc2ccccc2c1)NC(=O)[C@H](Cc1ccc(OCCN)cc1)NC(=O)[C@H]1NC(=O)[C@H](CCCNC(N)=O)NC(=O)[C@H](Cc2c[nH]c3c(C)cccc23)NC(=O)[C@H]([C@@H](C)O)NC(=O)[C@H](CC(N)=O)NC(=O)[C@@H](NC(C)=O)C(C)(C)SSC1(C)C)C(=O)N[C@@H](CC(N)=O)C(=O)N[C@@H](C(N)=O)[C@H](C)O) [Peptide of SEQ ID NO: 263]
0.699 | Ac-[Pen]NT[Trp(7-Me)][Cit][Pen][AEF][2Nal][αMeK]K(Ac)NS-NH2 (disulfide 1-6; SMILES CC(=O)NCCCC[C@H](NC(=O)[C@](C)(CCCCN)NC(=O)[C@H](Cc1ccc2ccccc2c1)NC(=O)[C@H](Cc1ccc(OCCN)cc1)NC(=O)[C@H]1NC(=O)[C@H](CCCNC(N)=O)NC(=O)[C@H](Cc2c[nH]c3c(C)cccc23)NC(=O)[C@H]([C@@H](C)O)NC(=O)[C@H](CC(N)=O)NC(=O)[C@@H](NC(C)=O)C(C)(C)SSC1(C)C)C(=O)N[C@@H](CC(N)=O)C(=O)N[C@@H](CO)C(N)=O) [Peptide of SEQ ID NO: 260]
12.5 | Ac-[Pen]NT[Trp(7-Me)][Aib][Pen][AEF][2Nal][αMeK]K(Ac)N[βAla]-NH2 (disulfide 1-6; SMILES CC(=O)NCCCC[C@H](NC(=O)[C@](C)(CCCCN)NC(=O)[C@H](Cc1ccc2ccccc2c1)NC(=O)[C@H](Cc1ccc(OCCN)cc1)NC(=O)[C@H]1NC(=O)C(C)(C)NC(=O)[C@H](Cc2c[nH]c3c(C)cccc23)NC(=O)[C@H]([C@@H](C)O)NC(=O)[C@H](CC(N)=O)NC(=O)[C@@H](NC(C)=O)C(C)(C)SSC1(C)C)C(=O)N[C@@H](CC(N)=O)C(=O)NCCC(N)=O) [Peptide of SEQ ID NO: 241]
1.82 | XNTXKXXXXKNV (Ac-[Pen]-NT-[W(7-Me)]-[Lys(Ac)]-[Pen]-Phe[4-(2-aminoethoxy)]-[2-Nal]-[a-MeLys]-[Lys(Ac)]-N-V-NH2; Pen-Pen disulfide) [Peptide of SEQ ID NO: 250]
1.91 | XNTXKXXXXKSX (Ac-[Pen]-N-T-[W(7-Me)]-[Lys(Ac)]-[Pen]-Phe[4-(2-aminoethoxy)]-[2-Nal]-[a-MeLys]-[Lys(Ac)]-S-[bA]-NH2; Pen-Pen disulfide) [Peptide of SEQ ID NO: 271]
2.5 | XNTXKXXXXKNI (Ac-[Pen]-NT-[W(7-Me)]-[Lys(Ac)]-[Pen]-Phe[4-(2-aminoethoxy)]-[2-Nal]-[a-MeLys]-[Lys(Ac)]-N-I-NH2; Pen-Pen disulfide) [Peptide of SEQ ID NO: 255]
0.506 | XNTXQXXXXKNX (Ac-[Pen]-NT-[W(7-Me)]-Q-[Pen]-Phe[4-(2-aminoethoxy)]-[2-Nal]-[a-MeLys]-[Lys(Ac)]-N-[bA]-NH2; Pen-Pen disulfide) [Peptide of SEQ ID NO: 267]
1.44 | XNTXKXXXXKNP (Ac-[Pen]-NT-[W(7-Me)]-[Lys(Ac)]-[Pen]-Phe[4-(2-aminoethoxy)]-[2-Nal]-[a-MeLys]-[Lys(Ac)]-N-P-NH2; Pen-Pen disulfide) [Peptide of SEQ ID NO: 253]
0.754 | Ac-[Pen]NT[Trp(7-Me)][Cit][Pen][AEF][2Nal][αMeK]K(Ac)N[dR]-NH2 (disulfide 1-6) [Peptide of SEQ ID NO: 256]
1.45 | XNTXKXXXXKNL (Ac-[Pen]-NT-[W(7-Me)]-[Lys(Ac)]-[Pen]-Phe[4-(2-aminoethoxy)]-[2-Nal]-[a-MeLys]-[Lys(Ac)]-N-L-NH2; Pen-Pen disulfide) [Peptide of SEQ ID NO: 244]
17.7 | Ac-[Pen][Aib]T[Trp(7-Me)]Q[Pen][AEF][2Nal][αMeK]K(Ac)N[βAla]-NH2 (disulfide 1-6; SMILES CC(=O)NCCCC[C@H](NC(=O)[C@](C)(CCCCN)NC(=O)[C@H](Cc1ccc2ccccc2c1)NC(=O)[C@H](Cc1ccc(OCCN)cc1)NC(=O)[C@H]1NC(=O)[C@H](CCC(N)=O)NC(=O)[C@H](Cc2c[nH]c3c(C)cccc23)NC(=O)[C@H]([C@@H](C)O)NC(=O)C(C)(C)NC(=O)[C@@H](NC(C)=O)C(C)(C)SSC1(C)C)C(=O)N[C@@H](CC(N)=O)C(=O)NCCC(N)=O) [Peptide of SEQ ID NO: 240]

Source: patent US20220041658A1 (PROTAGONIST THERAPEUTICS, published 2022)
